Laboratory results published in article PMC3008968.

B1: fetuin (fetal calf serum) (natural protein)
chain: IPLDPVAGYKEPACDDPDTEQAALAAVDYINKHLPRGYKHTLNQIDSVKVWPRRPTGEVYDIEIDTLETTCHVLDPTPLANCSVRQQTQHAVEGDCDIHVLKQDGQFSVLFTKCDSSPDSAEDVRKLCPDCPLLAPLNDSRVVHAVEVALATFNAESNGSYLQLVEISRAQFVPLPVSVSVEFAVAATDCIAKEVVDPTKCNLLAEKQYGFCKGSVIQKALGGEDVRVTCTLFQTQPVIPQPQPDGAEAEAPSAVPDAAGPTPSAAGPPVASVVVGPSVVAVPLPLHRAHYDLRHTFSGVASVESSSGEAFHVGKTPIVGQPSIPGGPVRLCPGRIRYFKI
B2: Asialofetuin (natural protein)
chain: B1 chain
modifications: asialo form (asialofetuin)

Assays:
[1] = biological target: Cephalosporium lectin (Cephalosporium (isolated from the corneal smears of a keratitis patient))
[2] = biological target: Cephalosporium lectin (Cephalosporium (isolated from the corneal smears of a keratitis patient)); assay: SEC; gel filtration on a Superdex G-75 column in PBS, calibrated with standard proteins; 57 kDa compared with the 14 kDa subunit mass by SDS-PAGE

Molecule	minimum concentration required to inhibit hemagglutination of trypsinized human erythrocytes by CSL (hapten inhibition, MIC) [1]	stoichiometry N [2]
Mucin (porcine stomach, type III) (natural protein)	0.785 μg/50 μl	–
Cephalosporium lectin (natural protein)	–	4
B1	6.25 μg/50 μl	–
B2	12.5 μg/50 μl	–
